Reference: patent publication US20170160285A1 (VIB VZW, published 2017)

Experiments:
[1] = biological target: T1, Recombinant rat RIC8A (resistance to inhibitors of cholinesterase 8A) (rat, UniProt Q80ZG1 1-491, limits assumed); test: FACS of yeast cells displaying the Nb, stained with 1 µM RIC8A-DYLIGHT-405; black = clone (CA8316 per legend), grey = irrelevant Nb
T1 construct: In the FACS screening it was labelled at random on amines with DYLIGHT-405 NHS ester
T1 sequence (looked up): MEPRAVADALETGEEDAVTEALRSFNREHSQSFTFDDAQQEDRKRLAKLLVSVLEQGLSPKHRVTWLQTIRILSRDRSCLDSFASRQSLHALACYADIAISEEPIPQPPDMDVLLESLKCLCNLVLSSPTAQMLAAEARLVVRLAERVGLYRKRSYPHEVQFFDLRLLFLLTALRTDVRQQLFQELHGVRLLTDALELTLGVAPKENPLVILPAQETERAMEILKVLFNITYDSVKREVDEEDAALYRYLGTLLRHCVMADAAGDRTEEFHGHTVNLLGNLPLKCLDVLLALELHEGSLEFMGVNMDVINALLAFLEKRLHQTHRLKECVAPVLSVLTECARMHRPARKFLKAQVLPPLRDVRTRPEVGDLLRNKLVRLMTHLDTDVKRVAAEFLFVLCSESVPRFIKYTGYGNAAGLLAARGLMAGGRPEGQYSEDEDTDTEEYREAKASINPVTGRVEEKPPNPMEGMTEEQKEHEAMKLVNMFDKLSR

[2] = biological target: T2, Recombinant Gαi1 (heterotrimeric G protein alpha subunit i1) (rat, UniProt P10824 1-354); test: FACS of yeast cells displaying the Nb, stained with 1 µM Gαi1(GDP)-DYLIGHT-488; black = clone (CA8316 per legend), grey = irrelevant Nb
T2 construct: In the FACS screening it was labelled at random on amines with DYLIGHT-488 NHS ester; The sentence reads 'Recombinant rat RIC8A (uniprot:Q80ZG1) and Gαi1 (uniprot:P10824)'
T2 sequence (P10824 whole entry, one chain of several): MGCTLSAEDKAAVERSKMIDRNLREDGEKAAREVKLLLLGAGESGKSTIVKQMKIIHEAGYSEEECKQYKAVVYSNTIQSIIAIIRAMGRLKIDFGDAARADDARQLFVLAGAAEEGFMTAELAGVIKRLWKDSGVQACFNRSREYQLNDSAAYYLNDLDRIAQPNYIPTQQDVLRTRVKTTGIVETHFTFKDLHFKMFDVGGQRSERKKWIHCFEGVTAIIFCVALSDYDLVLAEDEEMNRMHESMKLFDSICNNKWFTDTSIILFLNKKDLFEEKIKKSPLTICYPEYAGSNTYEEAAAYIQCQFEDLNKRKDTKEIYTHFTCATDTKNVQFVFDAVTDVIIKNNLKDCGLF

[3] = biological target: T2, Recombinant Gαi1 (heterotrimeric G …); test: FACS of yeast cells displaying the Nb, stained with 1 µM Gαi1(GDP)-DYLIGHT-488; black = clone (CA8322 per legend), grey = irrelevant Nb
[4] = biological target: T2, Recombinant Gαi1 (heterotrimeric G …); test: FACS on single yeast clone displaying the Nb; Gαi1-DYLIGHT-488
[5] = biological target: T1, Recombinant rat RIC8A (resistance to …); test: FACS on single yeast clone displaying the Nb; RIC8A-DYLIGHT-405

Binder	binding result [4]	binding result [5]	further results
NANOBODY CA8316 (VHH, Family 7; The same nanobody subcloned in pMESy4 and purified from E. coli is CA8332) VHH: QLQLVESGGGLVQAGGSLRLSCAASGDTFSRYVMGWFRQAPGKERTFVVGISGGGGITRYADSVKGRFTISRDNAENTLYLEMNTLNPEDTAVYYCAATPADSAFMRNLRVYDYWGQGTQVTVSS	–	–	binding result [1]: no binding (tested: 1 µM); binding result [2]: no binding (tested: 1 µM)
NANOBODY CA8322 (VHH, Family 16; also called CA8338 (pMESy4, E. coli)) VHH: QVQLVESEGGLVQPGGSLRLSCAASGFTFKYYYMNWVRQAPGKGLEWVSRINQLGGTSYGDSVKGRFTISRDNAKNTLYLQMNSLVPEDTAVYYCARCPAGAACKVEYDYRGQGTQVTVSS	–	–	binding result [3]: no binding (tested: 1 µM)
NANOBODY CA8312 (VHH, Family 1; also called CA8328 (pMESy4, E. coli)) VHH: QVQLVESGGGLVQAGGSKRLSCAASGRPFSNSAMGWFRQAPGKEREFVAAISWSGGNTYYADSVKGRFTISRDNAKNAVYLRMNSLEPEDTAVYYCAGDRQPYVYDLPTAQYQYDYWGQGTQVTVSS	no binding (tested: 1 µM)	no binding (tested: 1 µM)	–
NANOBODY CA8318 (VHH, Family 8; also called CA8334 (pMESy4, E. coli)) VHH: QVQLVESGGGRVQAGDSLRLSCAASGRTFSPYAMGWFRQAPGKEREFVATINWSGDYTYYTDSVKGRFTTSRDNAKNTLYLEMNSLNAEDTAVYYCVARVGSPSSSDRAYQYWGQGTQVTVSS	no binding (tested: 1 µM)	no binding (tested: 1 µM)	–
NANOBODY CA8319 (VHH, Family 10) VHH: QVQLVESGGGLVQAGGSLRLSCEASGRTSSSYVMGWFRRVSGKEREFVAAINPTGSSTYYADSVKGRFTISRDNSKNTVYVQMNGLKPEDTAVYYCAATRRDFYIIRNSRPQFDYWGQGTQVTVSS	no binding (tested: 1 µM)	no binding (tested: 1 µM)	–
NANOBODY CA8402 (VHH, Family 19; also called CA8431 (pMESy4, E. coli)) VHH: QVQLVESGGGLVQAGGSLRLSCAASGRTFSNYAMGWFRQAPGKEREFVAAISWSGGKTLYAESVKGRFTISRDNAKNTVYLQMNSLKPEDTAVYYCAATPADLTVVAGPPRIEMWYWGQGTQVTVSS	no binding (tested: 1 µM)	no binding (tested: 1 µM)	–
NANOBODY CA8403 (VHH, Family 20; also called CA8432 (pMESy4, E. coli)) VHH: QVQLVESGGGLVQAGGSLRLSCAASTRTFSNYVMGWFRQAPGKEREFVSAITSSGRGTSYADSVKGRFTISRDNAKNTVFLQMNSLKPEDTAVYYCAATAADYVLRSRPSVYSYWGQGTQVTVSS	no binding (tested: 1 µM)	no binding (tested: 1 µM)	–
NANOBODY CA8405 (VHH, Family 21; also called CA8433 (pMESy4, E. coli)) VHH: QVQLVESGGGLVQDGGSLRLSCTASGRTFSNNAMGWFRQEPGREREFVAAIRWNGIANYADSVKGRFTISGDNAKNTVYLQMNSLKPDDTAVYYCAAAIRDGHNYYASDMRRYDYWGQGTQVTVSS	no binding (tested: 1 µM)	no binding (tested: 1 µM)	–
NANOBODY CA8418 (VHH, Family 23) VHH: QVQLVESGGGLVQAGGSLRLSCAASGRTFSNYAMGWFRQAPGKEREFVAALTWSGGNTVYRDSVKGRFIITRDNAKNAVYLQMNSLKPEDTAVYYCASDRRPYRYNIGTAEGEYNYWGQGTQVTVSS	no binding (tested: 1 µM)	–	–
NANOBODY CA8419 (VHH, Family 24) VHH: QVQLVESGGGLVQPGGSLRLSCAASGFTFSRFVMNWARQAPGKGLEWVSTINSDGDVTSYADSVKGRFTISRDNAKNTLYLQMNSLKPEDTAVYYCGKGWFLNRRDESRGQGTQVTVSS	no binding (tested: 1 µM)	–	–
NANOBODY CA8421 (VHH, Family 26) VHH: QVQLVESGGGLVQAGGSLRLSCAASGRTFSNYAMGWFRQAPGKEREFVAHITWTGGITYYSDSVKGRFIISRDNAKNTVNLQMNSLKAEDTAVYYCAADRVPYRFGVPSINEYDYWGQGTQVTVSS	no binding (tested: 1 µM)	–	–
NANOBODY CA8424 (VHH, Family 29; also called CA8444 (pMESy4, E. coli)) VHH: QVQLVESGGDLVQAGGSLRLSCAASGGIFIINNMGWYRQTPGNQRELVAEITRAGNSNYADSVKGRFTISRDNAKNTVYLQMNRLKPEDTAVYYCNFNVRYYGEYWGQGTQVTVSS	no binding (tested: 1 µM)	–	–
NANOBODY CA8408 (VHH, Family 6; also called CA8109 (pMESy4, E. coli)) VHH: QVQLVESGGGLVQAGDSLRLSCAASGLIVSNYAMGWFRQAPGKEREFVAYINWNGGVTYYTNSVKGRFTISRDNAKNTVYLQMNSLKPEDTAVYYCARTSRASVTTRVADFGYWGQGTQVTVSS	no binding (tested: 1 µM)	–	–
NANOBODY CA8406 (VHH, Family 11) VHH: QVQLVESGGGLVQPGGSLRLSCAASTNIFNLRSMGWYRQAPGKERELVATITTYNTNYADSVKGRFTISRDNAKKTMYLQMNSLRPEDTAVYYCNLQNRYDAMDYWGKGTQVTVSS	no binding (tested: 1 µM)	–	–
NANOBODY CA8411 (VHH, Family 3) VHH: QVQLVESGGGLVQAGGSLRLSCAASARTFSRYGAGWFRQAPGKEREFVGAITWGGGRTKYADSVKGRFTISRDNSKNTVYLQMNSLKSEDTAVYYCASSSIEFGPLEDTYDYWGQGTQVTVSS	no binding (tested: 1 µM)	–	–
NANOBODY CA8314 (VHH, Family 4; also called CA8330 (pMESy4, E. coli)) VHH: QVQLVESGGGLVQAGDSLRLSCTASERAFSRYAMGWFRQAPGKERELVAAVSWAGGTTYYGDSVKGRFTISRDNAKITVYLQMNSLKPEDTAVYYCAAEAREFSVGSYYATEYDYWGQGTQVTVSS	no binding (tested: 1 µM)	no binding (tested: 1 µM)	–
NANOBODY CA8315 (VHH, Family 5; also called CA8331 (pMESy4, E. coli)) VHH: QVQLVESGGGLVQAGGSLRLSCAASGRTFSNYAMGWFRQTPGKEREFVAAITWSGGATYYADSVKGRFIISRDNTKNTVYLQMNSLKPEDTAVYYCAADRKPYSYYPSDFGSWGQGTQVTVSS	no binding (tested: 1 µM)	no binding (tested: 1 µM)	–
